Here are results for one substance from patent publication US20020151498A1.

The target in experiment [1] is LSR beta subunit (56 kDa) (rat) (UniProt Q9WU74). Description: ultracentrifugation assay, in vitro translated labeled subunit with LDL, with against without oleate.
The target of experiment [2] is LSR alpha subunit (68 kDa) (rat) (UniProt Q9WU74). The experiment is described as above.
Chain of LSR alpha subunit (68 kDa) (rat) (Q9WU74 whole entry): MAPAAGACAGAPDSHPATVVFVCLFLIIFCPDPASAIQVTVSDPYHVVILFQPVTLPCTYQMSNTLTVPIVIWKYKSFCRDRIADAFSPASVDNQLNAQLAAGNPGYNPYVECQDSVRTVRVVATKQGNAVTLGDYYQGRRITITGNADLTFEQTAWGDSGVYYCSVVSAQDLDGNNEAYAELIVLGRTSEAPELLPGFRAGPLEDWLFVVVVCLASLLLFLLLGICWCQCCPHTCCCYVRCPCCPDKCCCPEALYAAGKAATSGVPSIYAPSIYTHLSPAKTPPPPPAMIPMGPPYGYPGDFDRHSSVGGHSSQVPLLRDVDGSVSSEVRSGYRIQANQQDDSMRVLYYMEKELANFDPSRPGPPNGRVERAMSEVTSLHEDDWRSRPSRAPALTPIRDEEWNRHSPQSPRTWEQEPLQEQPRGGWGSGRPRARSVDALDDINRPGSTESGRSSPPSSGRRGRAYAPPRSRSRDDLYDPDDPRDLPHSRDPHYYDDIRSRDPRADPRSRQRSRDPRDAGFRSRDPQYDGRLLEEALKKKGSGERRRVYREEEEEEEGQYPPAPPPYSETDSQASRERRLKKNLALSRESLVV

Chain of LSR beta subunit (56 kDa) (rat) (Q9WU74 other isoform, or with tags, fused parts or gaps limits assumed): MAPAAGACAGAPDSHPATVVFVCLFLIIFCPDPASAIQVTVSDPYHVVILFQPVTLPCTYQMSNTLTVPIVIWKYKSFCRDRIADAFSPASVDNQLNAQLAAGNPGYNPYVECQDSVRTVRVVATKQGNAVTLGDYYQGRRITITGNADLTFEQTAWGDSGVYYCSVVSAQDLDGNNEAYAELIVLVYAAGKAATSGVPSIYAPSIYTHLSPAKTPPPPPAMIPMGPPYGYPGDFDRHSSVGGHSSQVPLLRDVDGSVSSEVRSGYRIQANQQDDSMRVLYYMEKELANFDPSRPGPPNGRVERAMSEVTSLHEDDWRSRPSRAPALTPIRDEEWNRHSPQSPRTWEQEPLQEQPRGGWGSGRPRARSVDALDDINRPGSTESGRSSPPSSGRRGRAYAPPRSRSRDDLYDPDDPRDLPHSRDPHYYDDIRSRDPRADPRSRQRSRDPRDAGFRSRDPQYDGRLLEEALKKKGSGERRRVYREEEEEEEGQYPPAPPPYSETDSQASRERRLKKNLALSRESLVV

Consider LDL (low density lipoprotein) (ligand), for which the fold enhancement of binding in the presence of oleate turned out to be 5 fold in experiment [1] and 2 fold in experiment [2].
